US20220396632A1 (VERSEAU THERAPEUTICS, published 2022)
No end group written: not given here. *: point of attachment. Biotin = O=C1N[C@H]2[C@H](CS[C@H]2CCCCC(=O)*)N1

Tests used:
[1] = target: T1, Biotin PSGL-1(42-62) D50A peptide (C-terminal Lys-biotin); assay: ELISA, streptavidin-bound Ala peptide
T1 peptide: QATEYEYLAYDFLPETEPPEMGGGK

[2] = target: T2, Biotin PSGL-1(42-62) Y46A peptide (C-terminal Lys-biotin); assay: ELISA, streptavidin-bound Ala peptide
T2 peptide: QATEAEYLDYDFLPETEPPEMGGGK

[3] = target: T3, Biotin PSGL-1(42-62) E45A peptide (C-terminal Lys-biotin); assay: ELISA, streptavidin-bound Ala peptide
T3 peptide: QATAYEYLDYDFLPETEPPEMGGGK

[4] = target: T4, Biotin PSGL-1(105-125) peptide (human, N-terminal acetyl; C-terminal Lys-biotin); assay: ELISA; against WT PSGL-1(ECD)-hFc1
T4 peptide: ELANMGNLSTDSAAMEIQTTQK
Description: (§1) A typical ELISA experiment involved binding of a single concentration or serially diluted mAb in assay buffer (3% BSA in PBS containing 0.05% Tween®20, pH 7.4) onto BSA blocked high binding microtiter plate half-wells (Corning Cat. #3690), which contained PSGL-1 protein or streptavidin-immobilized biotin peptide. After incubation for 45 min. at 37° C., the plate was washed 3 times with wash buffer (PBS containing 0.05% Tween®20, pH 7.4), and an appropriate HRP-conjugated secondary antibody added (25 ul/well) (HRP goat anti-mouse or anti-human IgG). After 45 min. incubation at 37° C., the plate was washed and antibody bound to plate-immobilized target was determined at A450 nm using HRP substrate (3,3′5,5′-tetramethylbenzidine (TMB)). For each antibody, duplicate values were averaged and assay background subtracted.

[5] = target: T5, PSGL-1(120-140) (N-terminal acetyl; C-terminal Lys-biotin); assay: ELISA, streptavidin-immobilized biotin peptide [cont.]
T5 construct: also called Biotin PSGL-1(120-140) peptide
T5 peptide: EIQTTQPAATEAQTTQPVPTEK
Description: as §1

[6] = target: T6, PSGL-1(90-110) (N-terminal acetyl; C-terminal Lys-biotin); assay: as above
T6 construct: also called Biotin PSGL-1(90-110) peptide
T6 peptide: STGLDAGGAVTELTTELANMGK
Description: as §1

[7] = target: T7, 225-250 (N-terminal acetyl; C-terminal Lys-biotin); assay: as above
T7 peptide: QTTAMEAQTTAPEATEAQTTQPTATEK
Description: as §1

[8] = target: T8, 205-230 (N-terminal acetyl; C-terminal Lys-biotin); assay: as above
T8 peptide: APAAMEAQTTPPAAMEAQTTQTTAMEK
Description: as §1

[9] = target: T9, 42-80 (C-terminal Lys-biotin); assay: as above
T9 construct: also called Biotin PSGL-1(42-80) peptide
T9 peptide: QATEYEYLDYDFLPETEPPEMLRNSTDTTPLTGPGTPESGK
Description: as §1

[10] = target: T10, 260-280 (N-terminal acetyl; C-terminal Lys-biotin); assay: as above
T10 construct: also called Biotin PSGL-1(260-280) peptide
T10 peptide: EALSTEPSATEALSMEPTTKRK
Description: as §1

[11] = target: T11, 245-265 (N-terminal acetyl; C-terminal Lys-biotin); assay: as above
T11 peptide: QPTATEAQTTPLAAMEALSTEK
Description: as §1

[12] = target: T12, 63-80 (N-terminal acetyl; C-terminal Lys-biotin); assay: as above
T12 construct: also called Biotin PSGL-1(63-80) peptide
T12 peptide: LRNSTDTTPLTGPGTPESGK
Description: as §1

[13] = target: T13, PSGL-1(305-320); assay: as above
T13 construct: also called Biotin PSGL-1(305-320) peptide
T13 peptide: Ac-VNYPVGAPDHISVKQSK(Biotin)
Description: as §1

[14] = target: T14, 185-210 (N-terminal acetyl; C-terminal Lys-biotin); assay: as above
T14 construct: also called Biotin PSGL-1(185-210) peptide
T14 peptide: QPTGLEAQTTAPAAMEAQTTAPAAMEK
Description: as §1

[15] = target: T15, 75-95 (N-terminal acetyl; C-terminal Lys-biotin); assay: as above
T15 construct: also called Biotin PSGL-1(75-95) peptide
T15 peptide: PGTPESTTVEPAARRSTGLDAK
Description: as §1

[16] = target: T16, 165-190 (N-terminal acetyl; C-terminal Lys-biotin); assay: as above
T16 construct: also called Biotin PSGL-1(165-190) peptide
T16 peptide: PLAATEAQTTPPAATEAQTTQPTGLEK
Description: as §1

[17] = target: T17, 131-150 (N-terminal acetyl; C-terminal Lys-biotin); assay: as above
T17 construct: also called Biotin PSGL-1(131-150) peptide
T17 peptide: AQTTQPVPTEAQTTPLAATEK
Description: as §1

[18] = target: T18, 145-170 (N-terminal acetyl; C-terminal Lys-biotin); assay: as above
T18 peptide: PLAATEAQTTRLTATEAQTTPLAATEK
Description: as §1

[19] = target: T19, Biotin PSGL-1(56-70) peptide (human); assay: as above
T19 peptide: Ac-ETEPPEMLRNSTDTTGK(Biotin)
Description: as §1

[20] = target: T20, Biotin PSGL-1(42-62) peptide, unmodified (human, C-terminal Lys-biotin); assay: as above
T20 construct: Residues 42-62 followed by GGGK-biotin; also called WT; wild-type
T20 peptide: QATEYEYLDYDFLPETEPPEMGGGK
Description: as §1

[21] = target: T21, 275-295 (N-terminal acetyl; C-terminal Lys-biotin); assay: as above
T21 peptide: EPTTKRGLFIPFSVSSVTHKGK
Description: as §1

[22] = target: T22, Biotin PSGL-1(42-62) E56A peptide (C-terminal Lys-biotin); assay: ELISA, streptavidin-bound Ala peptide
T22 peptide: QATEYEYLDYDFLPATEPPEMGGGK

B1: 18F02 (antibody, V domains shown)
VH: QVQLQQPGAELVKPGASVKLSCKASGYTFTSYWMHWVKQRPGQGLEWIGMIHPNSGRTNYNEKFKSKATLTVDKSSSTAYMQLSSLTSEDSAVYYCARSDYWGQGTTLTVSS
VL: DIVMTQAAFSNPVTLGTSASISCRSSKSLLHSDGITYLYWFLQRPGQSPQLLIYRMSNLASGVPDRFSGSGSGTDFTLRISRVEAEDVGVYYCAQMLEFPRTFGGGTKLEIK
notes: From mouse immunisation; only variable domains given
EC50 [1]: 4.27 nM

B2: 16L15 (antibody, V domains shown)
VH: DVKLVESGGGLVKLGGSLKLSCAASGFTFSSYYMSWVRQTPEKRLEWVATISNGGGSTYYPDSVKDRFTISRDNAKNTLYLQMSSLNSEDTAVYYCAKPLYYSNPWFAYWGQGTLVTVSA
VL: DVLLTQTPLSLPVSLGDQASISCRSSQSIVHSNGNTYLEWYLQKPGQSPKLLIYKVSNRFSGVPDRFSGSGSGTDFTLKISRVEAEDLGVYYCFQGSHVPRTFGGGTKLEIK
notes: as for B1
EC50 [2]: 4.44 nM | EC50 [3]: 5.34 nM

B3: 16E17 (antibody, V domains shown)
VH: QIQLVQSGPELKKPGETVKISCKASGYAFTTYGMSWVKQAPGKGLKWMGWINTYSGVPKYADDFKGRFAFSLETSASTAYLHINNLKNEDTATYFCGRHYYGSSYFDYWGQGTTLTVSS
VL: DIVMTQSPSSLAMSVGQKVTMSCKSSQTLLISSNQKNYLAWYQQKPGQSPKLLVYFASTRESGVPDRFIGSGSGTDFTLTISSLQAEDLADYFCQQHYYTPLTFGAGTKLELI
notes: as for B1
EC50/EC50WTprot [4]: ~100 fold

B4: 18K07 (antibody, V domains shown)
VH: QIQLVQSGPELKKPGETVKISCEASGYTFTTYGMNWVKQAPGKGLKWMGWINTYSGVPTYADDFQGRFAFSVETSATTAYLQINNLKNEDAATYFCARSDDTYYGFAYWGQGTLVTVSA
VL: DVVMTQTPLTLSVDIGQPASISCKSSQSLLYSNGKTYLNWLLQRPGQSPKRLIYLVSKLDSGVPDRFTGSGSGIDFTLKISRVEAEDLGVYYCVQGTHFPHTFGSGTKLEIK
notes: as for B1
binding result [5]: no binding (tested: Log M -7 (100 nM)) | binding result [6]: no binding (tested: 10 nM) | binding result [7]: no binding (tested: 10 nM) | binding result [8]: no binding (tested: 10 nM) | binding result [9]: no binding (tested: 10 nM) | binding result [10]: no binding (tested: 10 nM) | binding result [11]: no binding (tested: 10 nM) | binding result [12]: no binding (tested: 10 nM) | binding result [13]: no binding (tested: 10 nM) | binding result [14]: no binding (tested: 10 nM) | binding result [15]: no binding (tested: 10 nM) | binding result [16]: no binding (tested: 10 nM) | binding result [17]: no binding (tested: 10 nM) | binding result [18]: no binding (tested: 10 nM) | binding result [19]: no binding (tested: 10 nM) | binding result [20]: no binding (tested: 10 nM) | binding result [21]: no binding (tested: 10 nM)

B5: 43B6 (antibody, V domains shown)
VH: EVQLQQSGPDLVKPGALVKISCKASGYSFTAYYIHWVKQSHGKSLEWIGRVNPNTGGTSYNPKFKGKAILNVDKSSSTAYMELRSLTSEDSAVYYCARSGSPYYRYDDWGQGTTLTVSS
VL: ENVLTQSPAIMSASPGEKVTMTCRASSTVNSTYLHWFQQKSGASPKLWIYGSSNLASGVPARFSGSGSGTSYSLTISSVEAEDAATYYCQQYSGYPLTFGAGTTLELK
notes: Control anti-PSGL-1 mAb, recombinant; only variable domains given; also called 43B3
EC50 [22]: 4.25 nM
